The DeepSol protein solubility set

Experiment: soluble on expression in E. coli; label from the status in PepcDB or PDB records

Sequence	soluble on expression in E. coli
MGSDKIHHHHHHDETVYDKLPADDFGQSTAELNALIGNSHNTMKKFWTEYMHLSECSGSMAVTPTRRGGDWYDGGQYREIYMHTWTSQTSRVKSAWKAATEAIGTCNEAIRKLQNSEILTEEEKAQDVADLRGVRAFWIYVMMDYWGNIPLLTEFHPTDKVFPGNSSRQEVFDWLIQEVEEIKDICPPATTENYGSFTQGAAYSLLAKLYLNAEAWGVTFSGNAYQKVIDNCDKVMAMGYILEPNWKDNFSVTNENSKEAILAATFSSSDTGNDGNVKNELHNNTLHYKDYLSLGITASGTWNGICAQPEYVRLFDEEDARLDGTFLTGLMIDKSTGKPIMTDHNNELNHTIDVNMIPGMEYDGTNWSAVEQHDGARCFKWEFASDLTSSMGNDFHIFRLADIYLMKAEALLRGGGSVSEATALVNTIRERGYGNSDHNYATVTLKEVQLERRLELAWEVYSRQDDIRFGCFTTGMWPQSNCERKADDYLKLLPVSQDAWQVNPNLKQNPGYAAFSK	not soluble
MMKGSRRTGNNTATTLNTPVVIHATQLPQHVSTDEVLQFLESFIDEKENIIDIDTNLSSSISQLKRIQRDFKGLPPAQDFSAAPIQV	soluble
MDKSTPRRTYNLRSADRTTQNSPVSRQSLENHRNASVSLRKRSSTSSLQRIQSEFTFTDSATEERCSRKRRRTQQTHGLPFSSPDAINHQRAFHLDEHKVCSKLTTRLSIEVETSYGSFGKLPYDAVIHILTRTPYNLLSRMVMTSSCWNQTIGAYMRSGAFRRRWLLDIDIAPSSKPLDPFFDMGKLVRCLTINYEWKARLDCLKSFMTLAYESGALIAGLGKMIHAFTNRPDEDIVLEQIDDIVAMLLALVSGLKDDLSAVLFTPETDRELEELDNMPILREEMKLRKKTLNLFLNNGSSDPAHGVNKYFLSSLMKVFKTAHNALPTALFYLLFSPTTIQDDEEVIHWHRLSLLSVVTSEEAEELKPLSRAMCALIQCRNLKHVLPWSKNTIFNLMEEITTYPNPWSMSTFVALNVLEPELVPIGVVARMNRNHEDEAGDIICTMKMLLHRWDMDVYGVMESIIDTIKAVLKPYQRRILFDRCWDWHQRNIDEHRNQMGHFSDIRAEIESQIEVMPVLMKLL	not soluble
MVNAIRTPDQRFSNLDQYPFSPNYLDDLPGYPGLRAHYLDEGNSDAEDVFLCLHGEPTWSYLYRKMIPVFAESGARVIAPDFFGFGKSDKPVDEEDYTFEFHRNFLLALIERLDLRNITLVVQDWGGFLGLTLPMADPSRFKRLIIMNACLMTDPVTQPAFSAFVTQPADGFTAYKYDLVTPSDLRLDQFMKRWAPTLTEAEASAYAAPFPDTSYQAGVRKFPKMVAQRDQACIDISTEAISFWQNDWNGQTFMAIGMKDKLLGPDVMYPMKALINGCPEPLEIADAGHFVQEFGEQVAREALKHFAETE	soluble
GMTDTNLVEMRAIERMMFDYSYHLDMNHPEELAALFVEDCEVSYAPNFGATGRDAYKKTLEGIGTFFRGTSHHNSNICIDFVSETEANVRSVVLAIHRYTKERPDGILYGQYFDTVVKVDGQWKFKRRELRTTMTTDYHVRAANPIGRAE	soluble
MAHHHHHHMNINKILFSKVGEVVKNGNGGMNMQQGASQLLSGKKLIYISKPTHGGFIYWKCRELIHTIKKKTKRCARYLDINHDFSRAALVGVPKTSYDPKNNIFYIQMDNEEWAGNFYKNGPSGVLMWGVMFFAKVCKMGKNALHTIRAAPFGRFAE	not soluble
MRNQELARIFEEIGLMSEFLGDNPFRVRAYHQAARTLYDLDTPIEEIAEKGKEALMELPGVGPDLAEKILEFLRTGKVRKHEELSRKVPRGVLEVMEVPGVGPKTARLLYEGLGIDSLEKLKAALDRGDLTRLKGFGPKRAERIREGLALAQAAGKRRPLGAVLSLARSLLEAIRALPGVERAELCGSARRYKDTVGDLDFLVASREGERAVEGFVRLPQVKEVYAKGKERATVFLKNGLQVDLRVVPPESYGAGLQYLTGSKAHSIRLRALAQEKGLKLSEYGVFRGEKRIAGETEEEVYAALGLPWIPPPLREDQGEVEAALEGRLPKLLELPQVKGDLQVHSTYSDGQNTLEELWEAAKTMGYRYLAVTDHSPAVRVAGGPSPEEALKRVGEIRRFNETHGPPYLLAGAEVDIHPDGTLDYPDWVLRELDLVLVSVHSRFNLPKADQTKRLLKALENPFVHVLAHPTARLLGRRAPIEADWEAVFQKAKEKGVAVEIDGYYDRMDLPDDLARMAYGMGLWISLSTDAHQTDHLRFMELAVGTAQRAWIGPERVLNTLDYEDLLSWLKARRGV	soluble
MMKQALRVAFGFLILWASVLHAEVRIVIDSGVDSGRPIGVVPFQWAGPGAAPEDIGGIVAADLRNSGKFNPLDRARLPQQPGSAQEVQPAAWSALGIDAVVVGQVTPNPDGSYNVAYQLVDTGGAPGTVLAQNSYKVNKQWLRYAGHTASDEVFEKLTGIKGAFRTRIAYVVQTNGGQFPYELRVSDYDGYNQFVVHRSPQPLMSPAWSPDGSKLAYVTFESGRSALVIQTLANGAVRQVASFPRHNGAPAFSPDGSKLAFALSKTGSLNLYVMDLASGQIRQVTDGRSNNTEPTWFPDSQNLAFTSDQAGRPQVYKVNINGGAPQRITWEGSQNQDADVSSDGKFMVMVSSNGGQQHIAKQDLATGGVQVLSSTFLDETPSLAPNGTMVIYSSSQGMGSVLNLVSTDGRFKARLPATDGQVKFPAWSPYLLEHHHHHH	soluble
MSFFHANQREALNQSLSELQGQINVSFEFFPPRTSEMEDTLWSSIDRLSTLKPKFVSVTYGANSGERDRTHSIIKGIKERTGLEAAPHLTCIDASPTQLRDIAIDYWNSGIRHIVALRGDLPPNSGKPEMYACDLVGLLKDVGDFDISVAAYPEIHPEAKSAQADLINLKRKIDAGANRAITQFFFDVESYLRFRDRCVATGIDVEIVPGILPVSNFKQLQRFATMTNVRVPNWMTSIFDGLDNDPETRKMVGASVAMDMVKILSREGVKDFHFYTLNRAELSYAICHTLGVRP	not soluble
MSNLVLYTLHLSPPCRAVELTAKALGLELEQKTINLLTGDHLKPEFVKLNPQHTIPVLDDNGTIITESHAIMIYLVTKYGKDDSLYPKDPVKQARVNSALHFESGVLFARMRFIFERILFFGKSDIPEDRVEYVQKSYELLEDTLVDDFVAGPTMTIADFSCISTISSIMGVVPLEQSKHPRIYAWIDRLKQLPYYEEANGGGGTDLGKFVLAKKEENAKA	soluble
MAHHHHHHMLKFFTEKANHQALKAVLCAVFVQKPLEVTLGSTYSTPYLQLPKSRALLYSCNEAARLIWSTHAAPLPADNSLEGEAEWLEWESTVLTPALTPLYTHRRITGEAEAALKKLDSTIEEHQGTVAVKGAPSSTSFLVDSVLFASLLPALCEGGLLPAAQAARVPHLVKWFQAFQAEHAELIASAFDVLSVQECGDFLRVP	soluble
SMIPDFMSFTSHIDELYESAKKQSGGKVADYIPQLAKFSPDLWGVSVCTVDGQRHSTGDTKVPFCLQSCVKPLKYAIAVNDLGTEYVHRYVGKEPSGLRFNKLFLNEDDKPHNPMVNAGAIVVTSLIKQGVNNAEKFDYVMQFLNKMAGNEYVGFSNATFQSERESGDRNFAIGYYLKEKKCFPEGTDMVGILDFYFQLCSIEVTCESASVMAATLANGGFCPITGERVLSPEAVRNTLSLMHSCGMYDFSGQFAFHVGLPAKSGVAGGILLVVPNVMGMMCWSPPLDKMGNSVKGIHFCHDLVSLCNFHNYDNL	soluble
MGSDKIHHHHHHMDITLFKTLLKVAAIGNISKAAAVLCVTQSAVSRRLKQLEDHIGKPLLIRSGNAVRPTEAGQFVLAKAQQIVDLESQIVDKLNVNEPKQRISLCCTPAFGIGRLPSIVSAFMADNAESADLNFVFNMPEQALEGIENGRFDLAIIEHCDDLNMAGHRGYPLPDDEMIFLSAPSLGIDSPAPSIEQLFDKRLYLKNEQGCARRFLDKNLALTGHSITEFANIIYFDDLQFIMREVLAGKGISFVPIGLVVDELCRHTLMAHRIADFDHFYPRTIILGRRAPSPLLLSFINTIYIAFGMPCPSIFHTEAPFPPEGFPESL	not soluble
MASMTGGQQMGRGSGIVQQQSNLLRAIEAQQHLLQLTVWGIKQGGGGSEWEREISNYTDIIYRLIEESQNQQEKNEQELLALDKWASLWNWFDITNWLWYIQHHHHHH	soluble
MSKEIAKKRIEELRDLLNTFNYQYHVLDNPSVSDAEYDRNMQELIKLEAENPEFMSEDSPSIRVGGTVLDIFEKVTHKSPMLSLGNAFNEGDLRDFDRRVRQGIDDANVRYICELKIDGLAVSLHYEKGRFIQGATRGDGVTGEDITQNLKTIKAIPLRLNEEVTLEARGEAYMPKRSFVKLNEEKEQNGEDVFANPRNAAAGSIRQLDPKIAAKRNLSMFVYGLANVEEKTIPSHSESLDYLGELGFKTNPNRRTCETIEEVIAYVEEWQEKRPHLDYEIDGIVIKVDDVALQESLGTTAKSPRWAIAYKFPAEEVVTRLTGIELSVGRTGVVTPTAELEPVRVAGTIVRRASLHNEDLIREKDIRIGDYVVVKKAGDIIPEVVNVIFDKRTGGEEEYHMPTHCPACESELVRLEEEVALRCINPTCPAQIREGLIHFVSRNAMNIDGLGERVITQLFDADYIRTFADLYSLTKEQLLQLERFGEKSATNLVQAIENSKENSLERLLFGLGIRHVGAKAARTFAEHFETMDALVKATEEELKAINEIGEKMAQSVVAYFDNEDVLELLQQFKEYGVNMTYKGIKIADLQNVESYFAGKTVVLTGKLEVMGRSEAKKKIEALGGKVTGSVSKSTDLVVAGEAAGSKLAQAEKHNVEVWNEERFLQELNK	soluble
MAHHHHHHMKETLVFATARQQFLQHGYAIFSAAIGASLIERLRPALTASTVARARCFIDVPDIESMLKSKSRLSDPLYTKVMARLQRRKYMLRRYREEKKRRKQLKEVVANFLNGREKEDLTGEELWKLSELLAKEAVSVPGKECRSTIKNDPQMLRAINEYRCNVWMTNKELENIVRDPSFWQPIGAIASDVGGVERPVLFADAPMFREPYGGPFGYHCTAPSIGVKTNGNQPLAVSLLVFTHRPDKQKMPLFVLKGSHRFVQDQYLRYVLPNVLSLPFLPMESHIPEQIKRFNFDSSVVGSPIEGGDAIGPGTVVVLNPHLMIGVGANASTERVAVYKLNLIAENAPPFLKAPSWITAWRSLPREVNFASPVVFPPFYDKTMSTTSAR	not soluble
TNAKASKRVYITFTGYDKKPSIDNLKKLDMSITSNPSKCTHLIAPRILRTSKFLCSIPYGPCVVTMDWINSCLKTHEIVDEEPYLLNDPEKELELGCTLESALKRARAQGPSLLEDYVVYLTSKTVAPENVPAVISIVKSNGGVCSTLNVYNKRLARHLEDGNVVLITCNEDSHIWTNFLDNASQNKTIFLQNYDWLIKTVLRQEIDVNDRIADEFARAV	soluble
MDCHKLRRLLKKEEGPKLDFKAEYDLSTESGKKELTKDVIAIANSRGGRGYIILGIEDKTKRVLGIEPKRYTEEQIQQIIYNRCDPPVPISVDFVGLDGKTVGVITVYRSSHKPHQMIQNGAFYIRRGSTTDIARRSEIANLFQENGLMTYETVILKNVGMEELDFGLIKDYFKTLNVFSDNPSELILEALGIIGQKSDTEEYHPTIGGLLLFGKNPSLYLPHVYVKVVYNGEARLFFGNILKMLDDVSDYMRSIIKVEGYPFNALEEVIANALVHRDYLDVSKGIVITVTDKNIEISNPGALIAGNSVYSFSREINPDRRNPWLYQRLLTLDPKKRFMKSGVGLKRVKKSFTGIGPVKFINIGSQNLFKVLLPIGKKQESTSDTSGLF	soluble
MSLKADPRGTGSRTPGTATGGKTVPTVPPAPTADRRTTVDVTALLERGRTLATPVLRAAVDRLAPPMDTVAAYHFGWIDAQGNPADGDGGKAVRPALAVLSAEVTGAAPEVGVPGAVAVELVHNFSLLHDDLMDGDEQRRHRDTVWKVHGPAQAILVGDALFALANEVLLELGTVEAGRATRRLTKASRSLIDGQAQDISYEHRDRVSVEECLEMEGNKTGALLACASSIGAVLGGADERTADTLEKYGYHLGLAFQAVDDLLGIWGDPDATGKQTWSDLRQRKKSLPVVAALAAGGAASERLGEILTADAKASDFANFSEEEFAARAALIEEAGGREWTADEARRQHTIAIEALDAVDMPDRVRDRFTALADFVVVRKREGHHHHHH	soluble
